Consider 1 molecule from article PMC4313098, “Mesencephalic Astrocyte-Derived Neurotrophic Factor Is Involved in Inflammation by Negatively Regulating the NF-κB Pathway” (Scientific Reports, 2015).

The experiment deals with T1, p65-N2-His (amino acids 1-190) (UniProt Q04206 1-190).
T1 construct: NF-κB p65, N-terminal 190 residues, subcloned into pET28a; also called p65-N2-6 × His; 6 × His-tagged p65-N2 fragment; source: E. coli, purified
Briefly: pull-down; in vitro: purified GST-fused MANF (or truncate, or GST) pre-bound to glutathione-agarose; purified p65-N2-6xHis loaded in 50 mM Tris-HCl pH 7.5, 100 mM NaCl, 0.1% Triton X-100, 1 hr at 4°C; eluted with 500 mM NaCl; blot with anti-His. The following applies: both partners purified.

T1 sequence (Q04206 1-190): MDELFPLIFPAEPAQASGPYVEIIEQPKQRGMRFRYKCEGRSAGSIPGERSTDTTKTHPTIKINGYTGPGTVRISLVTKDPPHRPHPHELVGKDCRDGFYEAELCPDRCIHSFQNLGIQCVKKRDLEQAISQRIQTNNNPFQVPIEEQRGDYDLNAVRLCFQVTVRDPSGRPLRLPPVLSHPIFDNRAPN

B1: MANF-D3-GST (C-terminal SAP-like domain, amino acids 96-182) (domain or fragment, human, UniProt P55145 96-182, looked up)
chain: LAHHIPVEKICEKLKKKDSQICELKYDKQIDLSTVDLKKLRVKELKKILDDWGETCKGCAEKSDYIRKINELMPKYAPKAASARTDL
As to B1, the binding result is “binds”.
